# Like-named read-outs stand apart in the source and are kept apart here. Square brackets hold non-standard residues; d marks the D form. Ends that are not written are not given here. Abu(4-SO3H) = N[C@@H](CCS(=O)(=O)O)C(=O)O; PhLac = O=C(O)[C@@H](O)Cc1ccccc1; PLA = not defined here
# B1: [PLA^5, E^9]Glucagon(aa5-29)-NH2 (peptide)
# peptide: [PhLac]FTSEYSKYLDSRRAQDFVQWLMNT-NH2
# modifications: N-terminus assumed
# SMILES: CSCC[C@H](NC(=O)[C@H](CC(C)C)NC(=O)[C@H](Cc1c[nH]c2ccccc12)NC(=O)[C@H](CCC(N)=O)NC(=O)[C@@H](NC(=O)[C@H](Cc1ccccc1)NC(=O)[C@H](CC(=O)O)NC(=O)[C@H](CCC(N)=O)NC(=O)[C@H](C)NC(=O)[C@H](CCCNC(=N)N)NC(=O)[C@H](CCCNC(=N)N)NC(=O)[C@H](CO)NC(=O)[C@H](CC(=O)O)NC(=O)[C@H](CC(C)C)NC(=O)[C@H](Cc1ccc(O)cc1)NC(=O)[C@H](CCCCN)NC(=O)[C@H](CO)NC(=O)[C@H](Cc1ccc(O)cc1)NC(=O)[C@H](CCC(=O)O)NC(=O)[C@H](CO)NC(=O)[C@@H](NC(=O)[C@H](Cc1ccccc1)NC(=O)[C@@H](O)Cc1ccccc1)[C@@H](C)O)C(C)C)C(=O)N[C@@H](CC(N)=O)C(=O)N[C@H](C(N)=O)[C@@H](C)O
# B2: [PLA6, D9, D28]Glucagon(aa6-29)-NH2 (peptide)
# peptide: FTSDYSKYLDSRRAQDFVQWLMDT
# modifications: N-terminal residue is phenyl lactic acid (PLA) in place of Phe 6; C-terminal amide
# B3: [hCys^9(SO3H)]Glucagon(aa4-29)-NH2 (peptide)
# peptide: GTFTS[Abu(4-SO3H)]YSKYLDSRRAQDFVQWLMNT-NH2
# modifications: N-terminus assumed
# SMILES: CSCC[C@H](NC(=O)[C@H](CC(C)C)NC(=O)[C@H](Cc1c[nH]c2ccccc12)NC(=O)[C@H](CCC(N)=O)NC(=O)[C@@H](NC(=O)[C@H](Cc1ccccc1)NC(=O)[C@H](CC(=O)O)NC(=O)[C@H](CCC(N)=O)NC(=O)[C@H](C)NC(=O)[C@H](CCCNC(=N)N)NC(=O)[C@H](CCCNC(=N)N)NC(=O)[C@H](CO)NC(=O)[C@H](CC(=O)O)NC(=O)[C@H](CC(C)C)NC(=O)[C@H](Cc1ccc(O)cc1)NC(=O)[C@H](CCCCN)NC(=O)[C@H](CO)NC(=O)[C@H](Cc1ccc(O)cc1)NC(=O)[C@H](CCS(=O)(=O)O)NC(=O)[C@H](CO)NC(=O)[C@@H](NC(=O)[C@H](Cc1ccccc1)NC(=O)[C@@H](NC(=O)CN)[C@@H](C)O)[C@@H](C)O)C(C)C)C(=O)N[C@@H](CC(N)=O)C(=O)N[C@H](C(N)=O)[C@@H](C)O
# B4: [PLA^4, E^9]Glucagon(aa4-29)-NH2 (peptide)
# peptide: [PhLac]TFTSEYSKYLDSRRAQDFVQWLMNT-NH2
# modifications: N-terminus assumed
# SMILES: CSCC[C@H](NC(=O)[C@H](CC(C)C)NC(=O)[C@H](Cc1c[nH]c2ccccc12)NC(=O)[C@H](CCC(N)=O)NC(=O)[C@@H](NC(=O)[C@H](Cc1ccccc1)NC(=O)[C@H](CC(=O)O)NC(=O)[C@H](CCC(N)=O)NC(=O)[C@H](C)NC(=O)[C@H](CCCNC(=N)N)NC(=O)[C@H](CCCNC(=N)N)NC(=O)[C@H](CO)NC(=O)[C@H](CC(=O)O)NC(=O)[C@H](CC(C)C)NC(=O)[C@H](Cc1ccc(O)cc1)NC(=O)[C@H](CCCCN)NC(=O)[C@H](CO)NC(=O)[C@H](Cc1ccc(O)cc1)NC(=O)[C@H](CCC(=O)O)NC(=O)[C@H](CO)NC(=O)[C@@H](NC(=O)[C@H](Cc1ccccc1)NC(=O)[C@@H](NC(=O)[C@@H](O)Cc1ccccc1)[C@@H](C)O)[C@@H](C)O)C(C)C)C(=O)N[C@@H](CC(N)=O)C(=O)N[C@H](C(N)=O)[C@@H](C)O
# B5: [hCys^9(SO3H)]Glucagon(aa5-29)-NH2 (peptide)
# peptide: TFTS[Abu(4-SO3H)]YSKYLDSRRAQDFVQWLMNT-NH2
# modifications: N-terminus assumed
# SMILES: CSCC[C@H](NC(=O)[C@H](CC(C)C)NC(=O)[C@H](Cc1c[nH]c2ccccc12)NC(=O)[C@H](CCC(N)=O)NC(=O)[C@@H](NC(=O)[C@H](Cc1ccccc1)NC(=O)[C@H](CC(=O)O)NC(=O)[C@H](CCC(N)=O)NC(=O)[C@H](C)NC(=O)[C@H](CCCNC(=N)N)NC(=O)[C@H](CCCNC(=N)N)NC(=O)[C@H](CO)NC(=O)[C@H](CC(=O)O)NC(=O)[C@H](CC(C)C)NC(=O)[C@H](Cc1ccc(O)cc1)NC(=O)[C@H](CCCCN)NC(=O)[C@H](CO)NC(=O)[C@H](Cc1ccc(O)cc1)NC(=O)[C@H](CCS(=O)(=O)O)NC(=O)[C@H](CO)NC(=O)[C@@H](NC(=O)[C@H](Cc1ccccc1)NC(=O)[C@@H](N)[C@@H](C)O)[C@@H](C)O)C(C)C)C(=O)N[C@@H](CC(N)=O)C(=O)N[C@H](C(N)=O)[C@@H](C)O
# Key:
# [1] = molecular target: T1, human glucagon receptor (human, UniProt P47871 26-477); experiment: cell-based or functional assay
# [2] = molecular target: human GLP-1 receptor (human, UniProt P43220 24-463); experiment: cell-based or functional assay
# [3] = molecular target: T1, human glucagon receptor; experiment: SPA competition vs 125I-glucagon, receptor membranes
# [4] = molecular target: T1, human glucagon receptor; experiment: cell-based or functional assay; remark: listed apart in the source
# [5] = molecular target: T1, human glucagon receptor; experiment: cell-based or functional assay; remark: listed apart in the source
# [6] = molecular target: T1, human glucagon receptor; experiment: cell-based or functional assay; remark: listed apart in the source
# [7] = molecular target: T1, human glucagon receptor; experiment: cell-based or functional assay; remark: listed apart in the source
# [8] = molecular target: T1, human glucagon receptor; experiment: cell-based or functional assay; remark: listed apart in the source
# [9] = molecular target: T1, human glucagon receptor; experiment: cell-based or functional assay; remark: listed apart in the source
# [10] = molecular target: T1, human glucagon receptor; experiment: cell-based or functional assay; remark: listed apart in the source
# [11] = molecular target: T1, human glucagon receptor; experiment: cell-based or functional assay; remark: listed apart in the source
# T1 sequence (P47871 26-477): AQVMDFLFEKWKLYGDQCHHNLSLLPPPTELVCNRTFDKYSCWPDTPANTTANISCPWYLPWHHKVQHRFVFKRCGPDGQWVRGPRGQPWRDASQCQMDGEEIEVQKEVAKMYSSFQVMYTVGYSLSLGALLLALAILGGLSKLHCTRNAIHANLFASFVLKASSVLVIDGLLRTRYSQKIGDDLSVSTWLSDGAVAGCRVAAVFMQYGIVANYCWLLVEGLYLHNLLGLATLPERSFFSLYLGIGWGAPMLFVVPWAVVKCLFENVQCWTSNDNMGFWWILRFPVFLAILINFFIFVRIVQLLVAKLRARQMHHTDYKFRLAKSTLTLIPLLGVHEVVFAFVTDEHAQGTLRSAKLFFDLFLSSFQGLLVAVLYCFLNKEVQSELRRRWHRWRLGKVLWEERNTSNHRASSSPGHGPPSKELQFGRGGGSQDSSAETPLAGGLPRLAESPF
molecule,measurement,setting,value
Oxyntomodulin KRNR (peptide),cAMP Induction EC50,[1],2.77 nM
same,cAMP Induction EC50,[2],3.21 nM
"[desHis^1, desPhe^6] Glucagon-NH2 (peptide)",cAMP Induction EC50,[1],1180 nM
same,IC50,[3],130 nM
"[PLA]TSEYSKYLDSRRAQDFVQWLMNTGPSSGAPPPS-NH2 (reading uncertain) [[PLA6, E9]Glucagon(aa6-29+CEX)-NH2]","IC50 (nM) (cAMP, inhibit Glucagon) 0.1 nM or 0.2 nM",[4],24.8 nM
"[PhLac]TS[Abu(4-SO3H)]YSKYLDSRRAQDFVQWLMNT-NH2 [[PLA6, hCys(SO3)9]Glucagon(aa6-29)-NH2]","IC50 (nM) (cAMP, inhibit Glucagon) 0.1 nM or 0.2 nM",[4],40.2 nM
B1,"IC50 (nM) (cAMP, inhibit 0.8 mM Glucagon)",[5],328 nM
"[PhLac]TSEYSKYLDSRRAQDFVQWLMNT-NH2 [[PLA6, E9]Glucagon(aa6-29)-NH2]","IC50 (nM) (cAMP, inhibit 0.8 mM Glucagon)",[5],64.8 nM
same,"Glucagon antagonism IC50(nM, inhibit 0.5 nM G)",[6],23.8 nM
HSQGTFTSDYSRYLDSRRAQDFVQWLMNK [Glucagon R12 K29],cAMP Induction EC50,[7],0.81 nM
same,cAMP Induction EC50,[2],0.41 nM
FTSEYSKYLDSRRAQDFVQWLMNT-NH2 [[Glu^9]Glucagon(aa6-29)-NH2],cAMP Inhibition IC50,[8],97 nM
same,"cAMP (I/A)50, inhibition index",[9],486 ratio
same,cAMP IC50,[10],97.2 nM
B2,"IC50 (nM) (cAMP, inhibit Glucagon) 0.1 nM or 0.2 nM",[4],1.32 nM
same,"Glucagon antagonism IC50(nM, inhibit 0.5 nM G)",[6],9.03 nM
B3,cAMP IC50,[11],68.4 nM
FTS[Abu(4-SO3H)]YSKYLDSRRAQDFVQWLMNT-NH2 [[hCys^9(SO3H)]Glucagon(aa6-29)-NH2],cAMP IC50,[11],133 nM
same,cAMP IC50,[10],133 nM
GTFTSEYSKYLDSRRAQDFVQWLMNT-NH2 [[Glu^9]Glucagon(aa4-29)-NH2],cAMP Inhibition IC50,[8],128 nM
same,"cAMP (I/A)50, inhibition index",[9],1380 ratio
B4,"IC50 (nM) (cAMP, inhibit 0.8 mM Glucagon)",[5],84.4 nM
SQGTFTS[Abu(4-SO3H)]YSKYLDSRRAQDFVQWLMNT-NH2 [[hCys^9(SO3H)]Glucagon(aa2-29)-NH2],cAMP IC50,[11],147 nM
B5,cAMP IC50,[11],98.3 nM

# From patent US20120122783A1 (INDIANA UNIVERSITY RESEARCH AND TECHOLOGY, published 2012)
